Source: article PMC4858744, “Bifunctional CYP81AA proteins catalyse identical hydroxylations but alternative regioselective phenol couplings in plant xanthone biosynthesis” (Nature Communications, 2016)

System: T1, NC(=O)C1=CN([C@@H]2O[C@H](COP(=O)(O)OP(=O)(O)OC[C@H]3O[C@@H](n4cnc5c(N)ncnc54)[C@H](OP(=O)(O)O)[C@@H]3O)[C@@H](O)[C@H]2O)C=CC1
T1 construct: full-length, 712 residues, pESC-URA MCS2, yeast (S. cerevisiae INVSc1) microsomes
Assay: cytochrome c reduction, yeast microsomes
Format: biochemical, Hypericum calycinum
Details: electron acceptor cytochrome c

Sequence of HcCPR2 (Hypericum calycinum) (chain, as listed by the source): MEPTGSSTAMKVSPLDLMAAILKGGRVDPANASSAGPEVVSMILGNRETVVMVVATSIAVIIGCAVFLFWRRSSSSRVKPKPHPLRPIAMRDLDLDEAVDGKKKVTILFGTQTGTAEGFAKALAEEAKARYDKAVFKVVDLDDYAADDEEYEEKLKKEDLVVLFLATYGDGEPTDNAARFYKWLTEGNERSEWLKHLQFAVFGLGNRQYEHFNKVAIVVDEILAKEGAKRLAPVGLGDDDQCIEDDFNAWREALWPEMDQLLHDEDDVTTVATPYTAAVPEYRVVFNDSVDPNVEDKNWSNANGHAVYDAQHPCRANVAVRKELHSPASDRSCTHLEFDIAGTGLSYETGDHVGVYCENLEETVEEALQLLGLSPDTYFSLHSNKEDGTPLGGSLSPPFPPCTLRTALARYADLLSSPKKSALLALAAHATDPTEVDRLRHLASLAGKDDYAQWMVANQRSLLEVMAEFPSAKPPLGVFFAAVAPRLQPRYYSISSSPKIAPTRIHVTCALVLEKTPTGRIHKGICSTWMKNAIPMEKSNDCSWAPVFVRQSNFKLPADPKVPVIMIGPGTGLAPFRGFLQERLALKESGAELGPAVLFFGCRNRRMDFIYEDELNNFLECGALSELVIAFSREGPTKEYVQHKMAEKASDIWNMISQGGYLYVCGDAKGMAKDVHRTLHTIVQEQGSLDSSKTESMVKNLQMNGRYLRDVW

HcCPR2 (Hypericum calycinum)
Km: 43.9 ± 6.5 µM
